{
  "source": "patent US20180050058",
  "assay_in_all_cases": "pulldown",
  "key": {"[1]": {"system": "Hemagglutinins of 14 non-H5 subtypes (H1-H4, H6-H13, H15, H16; Table 1 strains) (Influenza A virus)"}, "[2]": {"system": "Hemagglutinin H5N8 A/duck/NY191255-59/2002 (D-14) (Influenza A virus H5N8 (A/duck/NY191255-59/2002))"}, "[3]": {"system": "Hemagglutinin H5N1 A/bar-headed goose/Qinghai/14/2008 (Hg-2) (Influenza A virus H5N1 (A/bar-headed goose/Qinghai/14/2008))"}, "[4]": {"system": "Hemagglutinin H5N3 A/duck/Hokkaido/167/2007 (HK-12) (Influenza A virus H5N3 (A/duck/Hokkaido/167/2007))"}, "[5]": {"system": "Hemagglutinin H5N1 A/goose/Guiyang/337/2006 (G-8) (Influenza A virus H5N1 (A/goose/Guiyang/337/2006))"}, "[6]": {"system": "Hemagglutinin H5N1 A/Egypt/2321-NAMRU3/2007 (EG-2) (Influenza A virus H5N1 (A/Egypt/2321-NAMRU3/2007))"}, "[7]": {"system": "Hemagglutinin H5N2 A/American green-winged teal/California/HKWF609/2007 (A-17) (Influenza A virus H5N2 (A/American green-winged teal/California/HKWF609/2007))"}, "[8]": {"system": "Hemagglutinin H5N1 A/Cambodia/R0405050/2007 (C-8) (Influenza A virus H5N1 (A/Cambodia/R0405050/2007))"}, "[9]": {"system": "Hemagglutinin H5N1 A/Hubei/2010 (HB-16) (Influenza A virus H5N1 (A/Hubei/2010))"}, "[10]": {"system": "Hemagglutinin H5N1 A/Japanese white-eye/Hong Kong/1038/2006 (JW-1) (Influenza A virus H5N1 (A/Japanese white-eye/Hong Kong/1038/2006))"}, "[11]": {"system": "Hemagglutinin H5N1 A/Vietnam/1994/2004 (V-16) (Influenza A virus H5N1 (A/Vietnam/1994/2004))"}, "[12]": {"system": "Hemagglutinin H5N1 A/Indonesia/5/2005 (IN-3) (Influenza A virus H5N1 (A/Indonesia/5/2005))"}, "[13]": {"system": "Hemagglutinin H5N1 A/duck/Hunan/795/2002 (HN-8) (Influenza A virus H5N1 (A/duck/Hunan/795/2002))"}, "[14]": {"system": "Hemagglutinin H5N1 A/Hong Kong/483/97 (H-12) (Influenza A virus H5N1 (A/Hong King/483/97))"}},
  "data": [
    {"sequence": "TACTTATGTGGGCCGGTGCGTTTGCATTTT [A13]", "values": [
      {"measurement": "binding signal", "setting": "[1]", "result": "< 20", "unit": "%"},
      {"measurement": "Kd", "setting": "[2]", "result": 0.7, "unit": "nM"}
    ]},
    {"sequence": "GGGGTCAACTTTTCCTTTGTCGGTTTT [A2]", "values": [
      {"measurement": "binding signal", "setting": "[1]", "result": "< 20", "unit": "%"},
      {"measurement": "Kd", "setting": "[3]", "result": 13.4, "unit": "nM"}
    ]},
    {"sequence": "TGCACGCAGGGGCCGCTTGGGTGGAGAGGC [A12]", "values": [
      {"measurement": "binding signal", "setting": "[1]", "result": "< 20", "unit": "%"},
      {"measurement": "Kd", "setting": "[4]", "result": 3.5, "unit": "nM"}
    ]},
    {"sequence": "TGTCGGGGGAACAATCTGTGTTCGCTTGTC [A10]", "values": [
      {"measurement": "binding signal", "setting": "[1]", "result": "< 20", "unit": "%"},
      {"measurement": "Kd", "setting": "[5]", "result": 5.74, "unit": "nM"}
    ]},
    {"sequence": "TGGGTTTGGAAATTGGGACACAGTGGGGCG [A7]", "values": [
      {"measurement": "binding signal", "setting": "[1]", "result": "< 20", "unit": "%"},
      {"measurement": "Kd", "setting": "[6]", "result": 1.96, "unit": "nM"}
    ]},
    {"sequence": "GCGAGGTTGAGCGTGGGCTACTTGGTTCAT [A11]", "values": [
      {"measurement": "binding signal", "setting": "[1]", "result": "< 20", "unit": "%"},
      {"measurement": "Kd", "setting": "[7]", "result": 3.5, "unit": "nM"}
    ]},
    {"sequence": "TCACGCTTTTGGTGCATGCAGAGTTTTGTG [A4]", "values": [
      {"measurement": "Kd", "setting": "[8]", "result": 43.6, "unit": "nM"},
      {"measurement": "binding signal", "setting": "[1]", "result": "< 20", "unit": "%"}
    ]},
    {"sequence": "ATTGCAAGGAGAGGCTACGGCTATGACAGA [A8]", "values": [
      {"measurement": "binding signal", "setting": "[1]", "result": "< 20", "unit": "%"},
      {"measurement": "Kd", "setting": "[9]", "result": 9.4, "unit": "nM"}
    ]},
    {"sequence": "TGGATTGCACGCAGGGGCCGCTTGGCTGTC [A9]", "values": [
      {"measurement": "binding signal", "setting": "[1]", "result": "< 20", "unit": "%"},
      {"measurement": "Kd", "setting": "[10]", "result": 7.84, "unit": "nM"}
    ]},
    {"sequence": "TGGCAGTGGGTTGAGGGGAAGTCTTATTCG [A3]", "values": [
      {"measurement": "binding signal", "setting": "[1]", "result": "< 20", "unit": "%"},
      {"measurement": "Kd", "setting": "[11]", "result": 7.57, "unit": "nM"}
    ]},
    {"sequence": "TGGATTCACGCGGTCTCCGCCCTTGGGTGG [A6]", "values": [
      {"measurement": "binding signal", "setting": "[1]", "result": "< 20", "unit": "%"},
      {"measurement": "Kd", "setting": "[12]", "result": 14, "unit": "nM"}
    ]},
    {"sequence": "CTTCTTCCACCCATGCCGGCTGGAGAATCC [A5]", "values": [
      {"measurement": "binding signal", "setting": "[1]", "result": "< 20", "unit": "%"},
      {"measurement": "Kd", "setting": "[13]", "result": 12.4, "unit": "nM"}
    ]},
    {"sequence": "AGTGGGTTCTTGGTGCATCCCAGGAGTACC [A1]", "values": [
      {"measurement": "binding signal", "setting": "[1]", "result": "< 20", "unit": "%"},
      {"measurement": "Kd", "setting": "[14]", "result": 25.9, "unit": "nM"}
    ]}
  ]
}
